Laboratory results reported in patent US20190359687A1 (Bayer, published 2019).

T1: human glycophorin A on human red blood cells or red blood cell membranes (human, UniProt P02724 20-150)
T1 construct: whole, on cells; also called hRBC; human RBC membranes
T1 sequence (looked up): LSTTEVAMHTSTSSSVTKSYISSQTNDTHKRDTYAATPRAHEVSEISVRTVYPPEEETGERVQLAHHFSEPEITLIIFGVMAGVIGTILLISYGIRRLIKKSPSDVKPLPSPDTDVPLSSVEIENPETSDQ

T2: native human glycophorin A protein (human, UniProt P02724 20-150)
T2 construct: mature; also called Hu-nat GPA
T2 sequence (looked up): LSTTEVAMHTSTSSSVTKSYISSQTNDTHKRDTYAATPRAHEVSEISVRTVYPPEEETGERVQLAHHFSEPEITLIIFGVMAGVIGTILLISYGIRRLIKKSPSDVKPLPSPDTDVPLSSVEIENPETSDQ

T3: recombinant human glycophorin A ectodomain protein (human, UniProt P02724 20-91)
T3 construct: 72 amino acids of the extracellular region; also called Hu-rec GPA
T3 sequence: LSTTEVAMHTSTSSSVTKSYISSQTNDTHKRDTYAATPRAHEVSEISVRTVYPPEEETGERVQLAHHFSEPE


Columns and labels:
[1] = target: T1, human glycophorin A on human red blood …; assay: SPR (Biacore), Fab on human RBC membranes;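 also: human RBC membranes captured on an L1 sensor chip, Fab fragments passed over as analyte, binding kinetics read by surface plasmon resonance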
Experimental: Kinetic analysis of the antibody binding to human red blood cell membranes was also performed using surface plasmon resonance (SPR) using a Biacore instrument. In this assay membranes prepared from human red blood cells were attached to a L1 sensor matrix and antibodies were flowed over the RBC membranes.
The binding kinetics of the affinity matured Fab antibodies was also measured.

[2] = target: T2, native human glycophorin A protein; assay: ELISA, Fab on coated native human GPA
[3] = target: T1, human glycophorin A on human red blood …; assay: ELISA, Fab on coated human RBC membranes
Experimental: These membranes are prepared by first isolating red blood cells from citrated whole blood. Citrated whole blood is layered on to Ficol and centrifuged at low speed for 20 minutes to pellet the red blood cells. The supernatant containing plasma and other blood cells is discarded and the red blood cell pellet is subsequently washed 3 times in 10 cell volumes of phosphate buffered saline (PBS). A 10 ml pellet of purified red blood cells is resuspended in 30 ml of cold low osmorality 20 mM phosphate buffer (pH7.4) and incubated for 30 mins to break open the RBC. After Centrifugation at 10,000 rpm for 30 min at 5° C. the hemoglobin containing supernatant is discarded. To the membrane pellet another 30 ml of 20 mM phosphate buffer is added and the sample centrifuged again at 10,000 rpm for 30 min at 5° C. to pellet the membrane fraction. This wash and centrifugation step is repeated another 4 times. The red blood cell membranes are then resuspended in 20 mL of PBS to achieve an equivalent of approximately 2.5E9 cells/mL and stored frozen at −20° C. Binding of antibodies to RBC ghost can be measured by ELISA in which the RBC ghost suspension (5×10⁶ in 100 ul PBS) was added to each well of flat bottom 96-well ELISA microtiter plates (2HB, Immunolon) and the plates incubated overnight at 4° C. The plates were blocked with Starting blocking buffer (Thermo Fisher) for 2 hours at room temperature (RT). Antibodies or other test molecules were added to each well and incubated for 1.5 hours at RT. After 4 washes 100 ul of an appropriate detection antibody was added to each well and incubated for 1 hour at RT. After 4 washes the detection antibody was measured using appropriate detection reagents.

[4] = target: T4, Cynomolgus monkey recombinant glycophorin A ectodomain (Cynomolgus monkey); assay: ELISA, Fab on coated recombinant cyno GPA ectodomain
T4 construct: extracellular domain

[5] = target: T3, recombinant human glycophorin A …; assay: ELISA, Fab on coated recombinant human GPA ectodomain

| binding result [1] | binding in ELISA relative to parental Fab [2] | binding in ELISA relative to parental Fab [3] | binding in ELISA relative to parental Fab [4] | binding in ELISA relative to parental Fab [5] | Binder |
| --- | --- | --- | --- | --- | --- |
| binds |  |  |  |  | TPP-7791, affinity matured 6C12 Fab (Fab, V domains shown, Tested as Fab) VH: EVQLVQSGAEVKKPGASVKVSCKASGYTFTTYAIHWVRQAPGQGLEWMGYINPSSGYTRYNPKFKHRVTMTRDKSTSTAYMELRSLRSDDTAVYYCWTGTRDYWGQGTTVTVSS VL: DIQLTQSPSFLSASVGDRVTITCRASSSVRYIYWFQQKPGKAPKLLIYATSTLRSGVPSRFSGSGSGTEYTLTISSLQPEDFATYYCHQRNSFPYTFGQGTKLEIK |
|  | 2.1 relative to parental Fab | 0.7 relative to parental Fab | 0.9 relative to parental Fab | 1.1 relative to parental Fab | TPP-5703, Hu6C12-24 Fab variant VL: (N91S) (Fab, V domains shown, Built on the parental Fab TPP-4935) VH: EVQLVQSGAEVKKPGASVKVSCKASGYTFTTYTIHWVRQAPGQGLEWIGYINPSSDYTRYNPKFKDRVTLTTDKSTSTAYMELRSLRSDDTAVYYCQTGTRDYWGQGTTVTVSS VL: DIQLTQSPSFLSASVGDRVTITCSAASSVSYIYWFQQKPGKAPKLLIYSTSTLPSGVPSRFSGSGSGTEYTLTISSLQPEDFATYYCHQRSSFPFTFGQGTKLEIKR |
|  | 2.5 relative to parental Fab | 2.5 relative to parental Fab | 1.2 relative to parental Fab | 2.4 relative to parental Fab | TPP-5700, Hu6C12-24 Fab variant VL: (S24R, A26S, F95Y) (Fab, V domains shown, Built on the parental Fab TPP-4935) VH: EVQLVQSGAEVKKPGASVKVSCKASGYTFTTYTIHWVRQAPGQGLEWIGYINPSSDYTRYNPKFKDRVTLTTDKSTSTAYMELRSLRSDDTAVYYCQTGTRDYWGQGTTVTVSS VL: DIQLTQSPSFLSASVGDRVTITCRASSSVSYIYWFQQKPGKAPKLLIYSTSTLPSGVPSRFSGSGSGTEYTLTISSLQPEDFATYYCHQRNSFPYTFGQGTKLEIKR |
|  | 0.9 relative to parental Fab | 0.9 relative to parental Fab | 1.1 relative to parental Fab | 1 relative to parental Fab | TPP-5695, Hu6C12-24 Fab variant VH: (L70M, T72R) (Fab, V domains shown, Built on the parental Fab TPP-4935) VH: EVQLVQSGAEVKKPGASVKVSCKASGYTFTTYTIHWVRQAPGQGLEWIGYINPSSDYTRYNPKFKDRVTMTRDKSTSTAYMELRSLRSDDTAVYYCQTGTRDYWGQGTTVTVSS VL: DIQLTQSPSFLSASVGDRVTITCSAASSVSYIYWFQQKPGKAPKLLIYSTSTLPSGVPSRFSGSGSGTEYTLTISSLQPEDFATYYCHQRNSFPFTFGQGTKLEIKR |
|  | 0.1 relative to parental Fab | 0.3 relative to parental Fab |  | 0.1 relative to parental Fab | TPP-5337, Hu6C12-24 Fab variant VH: (Q97A, T98R) (Fab, V domains shown, Built on the parental Fab TPP-4935) VH: EVQLVQSGAEVKKPGASVKVSCKASGYTFTTYTIHWVRQAPGQGLEWIGYINPSSDYTRYNPKFKDRVTLTTDKSTSTAYMELRSLRSDDTAVYYCARGTRDYWGQGTTVTVSS VL: DIQLTQSPSFLSASVGDRVTITCSAASSVSYIYWFQQKPGKAPKLLIYSTSTLPSGVPSRFSGSGSGTEYTLTISSLQPEDFATYYCHQRNSFPFTFGQGTKLEIKR |
|  | 1.2 relative to parental Fab | 1.1 relative to parental Fab | 1.2 relative to parental Fab | 1.3 relative to parental Fab | TPP-5697, Hu6C12-24 Fab variant VH: (D66G, L70M, T72R) (Fab, V domains shown, Built on the parental Fab TPP-4935) VH: EVQLVQSGAEVKKPGASVKVSCKASGYTFTTYTIHWVRQAPGQGLEWIGYINPSSDYTRYNPKFKGRVTMTRDKSTSTAYMELRSLRSDDTAVYYCQTGTRDYWGQGTTVTVSS VL: DIQLTQSPSFLSASVGDRVTITCSAASSVSYIYWFQQKPGKAPKLLIYSTSTLPSGVPSRFSGSGSGTEYTLTISSLQPEDFATYYCHQRNSFPFTFGQGTKLEIKR |
|  | 1.8 relative to parental Fab | 0.8 relative to parental Fab | 1.2 relative to parental Fab | 1.8 relative to parental Fab | TPP-5677, Hu6C12-24 Fab variant VH: (I48M, D66G, L70M) (Fab, V domains shown, Built on the parental Fab TPP-4935) VH: EVQLVQSGAEVKKPGASVKVSCKASGYTFTTYTIHWVRQAPGQGLEWMGYINPSSDYTRYNPKFKGRVTMTTDKSTSTAYMELRSLRSDDTAVYYCQTGTRDYWGQGTTVTVSS VL: DIQLTQSPSFLSASVGDRVTITCSAASSVSYIYWFQQKPGKAPKLLIYSTSTLPSGVPSRFSGSGSGTEYTLTISSLQPEDFATYYCHQRNSFPFTFGQGTKLEIKR |
|  | 1.3 relative to parental Fab | 0.7 relative to parental Fab | 1.1 relative to parental Fab | 1.5 relative to parental Fab | TPP-5676, Hu6C12-24 Fab variant VH: (I48M, D66G) (Fab, V domains shown, Built on the parental Fab TPP-4935) VH: EVQLVQSGAEVKKPGASVKVSCKASGYTFTTYTIHWVRQAPGQGLEWMGYINPSSDYTRYNPKFKGRVTLTTDKSTSTAYMELRSLRSDDTAVYYCQTGTRDYWGQGTTVTVSS VL: DIQLTQSPSFLSASVGDRVTITCSAASSVSYIYWFQQKPGKAPKLLIYSTSTLPSGVPSRFSGSGSGTEYTLTISSLQPEDFATYYCHQRNSFPFTFGQGTKLEIKR |

More lines, now with the values behind:

| Binder | binding result [1] | binding in ELISA relative to parental Fab [2] | binding in ELISA relative to parental Fab [3] | binding in ELISA relative to parental Fab [4] | binding in ELISA relative to parental Fab [5] |
| --- | --- | --- | --- | --- | --- |
| TPP-5339, Hu6C12-24 Fab variant VH: (E1Q, I48M, L70M, T72R, K74T, R84S, D89E, Q97A, T98R) (Fab, V domains shown, Built on the parental Fab TPP-4935) VH: QVQLVQSGAEVKKPGASVKVSCKASGYTFTTYTIHWVRQAPGQGLEWMGYINPSSDYTRYNPKFKDRVTMTRDTSTSTAYMELSSLRSEDTAVYYCARGTRDYWGQGTTVTVSS VL: DIQLTQSPSFLSASVGDRVTITCSAASSVSYIYWFQQKPGKAPKLLIYSTSTLPSGVPSRFSGSGSGTEYTLTISSLQPEDFATYYCHQRNSFPFTFGQGTKLEIKR |  | 0 relative to parental Fab |  |  | 0 relative to parental Fab |
| TPP-5696, Hu6C12-24 Fab variant VH: (D66G, L70M) (Fab, V domains shown, Built on the parental Fab TPP-4935) VH: EVQLVQSGAEVKKPGASVKVSCKASGYTFTTYTIHWVRQAPGQGLEWIGYINPSSDYTRYNPKFKGRVTMTTDKSTSTAYMELRSLRSDDTAVYYCQTGTRDYWGQGTTVTVSS VL: DIQLTQSPSFLSASVGDRVTITCSAASSVSYIYWFQQKPGKAPKLLIYSTSTLPSGVPSRFSGSGSGTEYTLTISSLQPEDFATYYCHQRNSFPFTFGQGTKLEIKR |  | 1.3 relative to parental Fab | 1 relative to parental Fab | 1.2 relative to parental Fab | 1.2 relative to parental Fab |
| TPP-5701, Hu6C12-24 Fab variant VL: (S49A, P54Q, F95Y) (Fab, V domains shown, Built on the parental Fab TPP-4935) VH: EVQLVQSGAEVKKPGASVKVSCKASGYTFTTYTIHWVRQAPGQGLEWIGYINPSSDYTRYNPKFKDRVTLTTDKSTSTAYMELRSLRSDDTAVYYCQTGTRDYWGQGTTVTVSS VL: DIQLTQSPSFLSASVGDRVTITCSAASSVSYIYWFQQKPGKAPKLLIYATSTLQSGVPSRFSGSGSGTEYTLTISSLQPEDFATYYCHQRNSFPYTFGQGTKLEIKR |  | 4.6 relative to parental Fab | 4.7 relative to parental Fab | 1 relative to parental Fab | 3.9 relative to parental Fab |
| TPP-5356, Hu6C12-24 Fab variant VL: (F35Y, Y70F) (Fab, V domains shown, Built on the parental Fab TPP-4935) VH: EVQLVQSGAEVKKPGASVKVSCKASGYTFTTYTIHWVRQAPGQGLEWIGYINPSSDYTRYNPKFKDRVTLTTDKSTSTAYMELRSLRSDDTAVYYCQTGTRDYWGQGTTVTVSS VL: DIQLTQSPSFLSASVGDRVTITCSAASSVSYIYWYQQKPGKAPKLLIYSTSTLPSGVPSRFSGSGSGTEFTLTISSLQPEDFATYYCHQRNSFPFTFGQGTKLEIKR |  | 0.7 relative to parental Fab | 0.7 relative to parental Fab |  | 0.6 relative to parental Fab |
| TPP-5338, Hu6C12-24 Fab variant VH: (E1Q, I48M, L70M, T72R, K74T, R84S, D89E) (Fab, V domains shown, Built on the parental Fab TPP-4935) VH: QVQLVQSGAEVKKPGASVKVSCKASGYTFTTYTIHWVRQAPGQGLEWMGYINPSSDYTRYNPKFKDRVTMTRDTSTSTAYMELSSLRSEDTAVYYCQTGTRDYWGQGTTVTVSS VL: DIQLTQSPSFLSASVGDRVTITCSAASSVSYIYWFQQKPGKAPKLLIYSTSTLPSGVPSRFSGSGSGTEYTLTISSLQPEDFATYYCHQRNSFPFTFGQGTKLEIKR |  | 0.5 relative to parental Fab | 0.5 relative to parental Fab |  | 0.4 relative to parental Fab |
| TPP-5674, Hu6C12-24 Fab variant VH: (I48M, L70M) (Fab, V domains shown, Built on the parental Fab TPP-4935) VH: EVQLVQSGAEVKKPGASVKVSCKASGYTFTTYTIHWVRQAPGQGLEWMGYINPSSDYTRYNPKFKDRVTMTTDKSTSTAYMELRSLRSDDTAVYYCQTGTRDYWGQGTTVTVSS VL: DIQLTQSPSFLSASVGDRVTITCSAASSVSYIYWFQQKPGKAPKLLIYSTSTLPSGVPSRFSGSGSGTEYTLTISSLQPEDFATYYCHQRNSFPFTFGQGTKLEIKR |  | 1.4 relative to parental Fab | 0.7 relative to parental Fab | 1.1 relative to parental Fab | 1.5 relative to parental Fab |
| TPP-5698, Hu6C12-24 Fab variant VL: (S24R, A26S) (Fab, V domains shown, Built on the parental Fab TPP-4935) VH: EVQLVQSGAEVKKPGASVKVSCKASGYTFTTYTIHWVRQAPGQGLEWIGYINPSSDYTRYNPKFKDRVTLTTDKSTSTAYMELRSLRSDDTAVYYCQTGTRDYWGQGTTVTVSS VL: DIQLTQSPSFLSASVGDRVTITCRASSSVSYIYWFQQKPGKAPKLLIYSTSTLPSGVPSRFSGSGSGTEYTLTISSLQPEDFATYYCHQRNSFPFTFGQGTKLEIKR |  | 1.6 relative to parental Fab | 0.6 relative to parental Fab | 1 relative to parental Fab | 1.7 relative to parental Fab |
| TPP-5699, Hu6C12-24 Fab variant VL: (S49A, P54Q) (Fab, V domains shown, Built on the parental Fab TPP-4935) VH: EVQLVQSGAEVKKPGASVKVSCKASGYTFTTYTIHWVRQAPGQGLEWIGYINPSSDYTRYNPKFKDRVTLTTDKSTSTAYMELRSLRSDDTAVYYCQTGTRDYWGQGTTVTVSS VL: DIQLTQSPSFLSASVGDRVTITCSAASSVSYIYWFQQKPGKAPKLLIYATSTLQSGVPSRFSGSGSGTEYTLTISSLQPEDFATYYCHQRNSFPFTFGQGTKLEIKR |  | 3.8 relative to parental Fab | 3.1 relative to parental Fab | 0.8 relative to parental Fab | 3.2 relative to parental Fab |
